Patent US20170007716A1 (ONCOMATRYX BIOPHARMA S L, published 2017)

How the values were obtained:
[1] = molecular target: T1, human FAP on HT1080 cells (HT1080-huFAP, stable transfectants) (human, UniProt Q12884 1-760); assay: cell-based or functional assay
T1 sequence: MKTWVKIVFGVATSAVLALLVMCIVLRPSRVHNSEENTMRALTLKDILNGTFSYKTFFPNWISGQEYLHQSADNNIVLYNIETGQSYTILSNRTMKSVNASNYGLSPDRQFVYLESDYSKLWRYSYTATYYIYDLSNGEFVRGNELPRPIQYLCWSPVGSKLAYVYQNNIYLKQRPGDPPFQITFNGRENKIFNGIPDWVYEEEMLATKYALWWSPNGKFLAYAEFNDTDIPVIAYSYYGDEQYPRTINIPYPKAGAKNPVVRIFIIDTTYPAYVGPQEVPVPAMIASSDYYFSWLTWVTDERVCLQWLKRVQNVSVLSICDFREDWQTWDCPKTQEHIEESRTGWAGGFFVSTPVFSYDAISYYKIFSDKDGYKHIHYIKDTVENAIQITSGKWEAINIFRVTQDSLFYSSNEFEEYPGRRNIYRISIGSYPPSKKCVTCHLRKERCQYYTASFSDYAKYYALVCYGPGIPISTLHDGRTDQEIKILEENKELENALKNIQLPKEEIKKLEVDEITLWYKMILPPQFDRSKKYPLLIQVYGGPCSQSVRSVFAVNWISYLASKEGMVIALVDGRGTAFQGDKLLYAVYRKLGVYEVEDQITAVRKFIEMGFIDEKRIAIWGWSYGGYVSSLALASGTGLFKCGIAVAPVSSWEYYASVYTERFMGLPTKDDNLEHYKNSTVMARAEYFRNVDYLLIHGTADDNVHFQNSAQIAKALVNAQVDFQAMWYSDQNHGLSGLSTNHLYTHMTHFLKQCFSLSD

[2] = molecular target: T1, human FAP on HT1080 cells …; assay: cell-based or functional assay; remark: listed apart in the source
[3] = molecular target: T2, mouse FAP on HT1080 cells (HT1080-moFAP) (mouse, UniProt P97321 1-761); assay: flow cytometry, HT1080-moFAP cells
T2 construct: Murine FAP on stably transfected HT1080 cells; also called murine FAP
T2 sequence: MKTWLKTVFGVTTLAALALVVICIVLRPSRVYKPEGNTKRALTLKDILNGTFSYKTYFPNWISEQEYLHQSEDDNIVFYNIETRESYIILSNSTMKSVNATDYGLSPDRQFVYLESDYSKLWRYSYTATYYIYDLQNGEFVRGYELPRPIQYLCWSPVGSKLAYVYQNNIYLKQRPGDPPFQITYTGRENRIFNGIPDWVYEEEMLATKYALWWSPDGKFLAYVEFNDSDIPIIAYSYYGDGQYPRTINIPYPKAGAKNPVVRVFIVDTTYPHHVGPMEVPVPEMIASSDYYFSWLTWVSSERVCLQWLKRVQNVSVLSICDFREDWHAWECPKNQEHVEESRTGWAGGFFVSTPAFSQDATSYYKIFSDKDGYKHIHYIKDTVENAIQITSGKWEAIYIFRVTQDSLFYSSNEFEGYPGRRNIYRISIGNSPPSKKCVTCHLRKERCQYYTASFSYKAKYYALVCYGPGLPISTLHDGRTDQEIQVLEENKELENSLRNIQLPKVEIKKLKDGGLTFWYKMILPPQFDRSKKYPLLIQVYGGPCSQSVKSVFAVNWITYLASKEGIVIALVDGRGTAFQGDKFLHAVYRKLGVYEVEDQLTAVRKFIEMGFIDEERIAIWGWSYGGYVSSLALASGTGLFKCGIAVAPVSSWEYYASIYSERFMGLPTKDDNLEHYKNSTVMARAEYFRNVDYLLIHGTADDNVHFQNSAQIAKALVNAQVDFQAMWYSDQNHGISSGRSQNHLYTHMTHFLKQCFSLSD

[4] = molecular target: T1, human FAP on HT1080 cells …; assay: FACS, HT1080-huFAP cells
[5] = molecular target: T2, mouse FAP on HT1080 cells (HT1080-moFAP); assay: FACS, HT1080-moFAP cells
[6] = molecular target: T1, human FAP on HT1080 cells …; assay: flow cytometry, HT1080-huFAP cells
[7] = molecular target: T3, recombinant human FAP (extracellular region aa 26-760; R&D systems) (human, UniProt Q12884 26-760); assay: QCM (Attana A100), rhFAP; KD1
T3 construct: also called rhFAP; recombinant FAP
T3 sequence: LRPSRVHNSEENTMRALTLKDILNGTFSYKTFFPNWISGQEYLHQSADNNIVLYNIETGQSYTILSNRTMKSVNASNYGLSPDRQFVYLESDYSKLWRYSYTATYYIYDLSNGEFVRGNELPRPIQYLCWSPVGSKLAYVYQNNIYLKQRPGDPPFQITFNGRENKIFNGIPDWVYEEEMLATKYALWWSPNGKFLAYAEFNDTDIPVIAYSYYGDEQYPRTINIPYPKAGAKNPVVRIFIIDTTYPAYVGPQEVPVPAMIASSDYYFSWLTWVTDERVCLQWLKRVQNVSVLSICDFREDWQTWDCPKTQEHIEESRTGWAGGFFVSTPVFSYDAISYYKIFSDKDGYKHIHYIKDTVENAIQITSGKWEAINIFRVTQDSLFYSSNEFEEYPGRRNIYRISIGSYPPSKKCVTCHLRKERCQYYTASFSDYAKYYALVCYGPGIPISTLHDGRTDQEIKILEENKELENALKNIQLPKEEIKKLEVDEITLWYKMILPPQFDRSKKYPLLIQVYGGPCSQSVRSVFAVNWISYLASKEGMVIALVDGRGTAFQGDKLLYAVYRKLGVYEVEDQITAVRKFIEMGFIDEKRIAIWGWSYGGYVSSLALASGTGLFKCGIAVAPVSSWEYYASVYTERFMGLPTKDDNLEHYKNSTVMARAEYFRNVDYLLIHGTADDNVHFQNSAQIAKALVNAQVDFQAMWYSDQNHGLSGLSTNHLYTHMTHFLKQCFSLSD

[8] = molecular target: T3, recombinant human FAP (extracellular …); assay: ELISA, recombinant FAP coated
[9] = molecular target: T3, recombinant human FAP (extracellular …); assay: QCM (Attana A100), rhFAP; KD2
[10] = molecular target: T3, recombinant human FAP (extracellular …); assay: ELISA, rhFAP

B1: ADC-558 (HPS-157-039-005), anti-FAP hu36:TAM558 ADC (antibody, V domains shown)
VH: QVQLVQSGAEVKKPGASVKVSCKASGYTFTENIIHWVRQAPGQGLEWMGWFHPGSGSIKYNEKFKDRVTMTADTSTSTVYMELSSLRSEDTAVYYCARHGGTGRGAMDYWGQGTLVTVSS
VL: DIQMTQSPSSLSASVGDRVTITCRASKSVSTSAYSYMHWYQQKPGKAPKLLIYLASNLESGVPSRFSGSGSGTDFTLTISSLQPEDFATYYCQHSRELPYTFGQGTKLEIKR
modifications: cytolysin-linker TAM558 on cysteine residues (not site-specific); cytolysin-linker TAM558 (vcPABA linker in R4 with 3 ethylene glycol spacer) on cysteine residues (not site-specific), DAR 3.92 for the whole antibody
IC50 in Proliferation Arrest Assay (nM), HT1080-FAP [1]: 0.96 nM
specificity ratio between FAP(+) and FAP(-) HT1080 cells (cytotoxic activity) [2]: 500

B2: humanized anti-FAP IgG1 hu36 (hu36-IgG1) (antibody, V domains shown)
VH: QVQLVQSGAEVKKPGASVKVSCKASGYTFTENIIHWVRQAPGQGLEWMGWFHPGSGSIKYNEKFKDRVTMTADTSTSTVYMELSSLRSEDTAVYYCARHGGTGRGAMDYWGQGTLVTVSS
VL: DIQMTQSPSSLSASVGDRVTITCRASKSVSTSAYSYMHWYQQKPGKAPKLLIYLASNLESGVPSRFSGSGSGTDFTLTISSLQPEDFATYYCQHSRELPYTFGQGTKLEIKR
notes: Full-length humanized IgG1/kappa, gamma1* = deficient for ADCC and CDC; made in CHO cells; also called anti-hu/moFAP hu36; naked anti-FAP hu36-IgG1
EC50 [3]: 0.25 nM
EC50 [4]: 0.3 nM
EC50 [5]: 0.2 nM
EC50 [6]: 0.33 nM
Kd [7]: 218 nM
EC50 [8]: ~5 nM
Kd [9]: 0.4 nM
EC50 [10]: 3 nM

B3: Anti-FAP hu36-IgG1-recNgA immunotoxin conjugate HPS131-001-1 (antibody)
heavy: QVQLVQSGAEVKKPGASVKVSCKASGYTFTENIIHWVRQAPGQGLEWMGWFHPGSGSIKYNEKFKDRVTMTADTSTSTVYMELSSLRSEDTAVYYCARHGGTGRGAMDYWGQGTLVTVSSASTKGPSVFPLAPSSKSTSGGTAALGCLVKDYFPEPVTVSWNSGALTSGVHTFPAVLQSSGLYSLSSVVTVPSSSLGTQTYICNVNHKPSNTKVDKKVEPKSCDKTHTCPPCPAPPVAGPSVFLFPPKPKDTLMISRTPEVTCVVVDVSHEDPEVKFNWYVDGVEVHNAKTKPREEQYNSTYRVVSVLTVLHQDWLNGKEYKCKVSNKGLPSSIEKTISKAKGQPREPQVYTLPPSRDELTKNQVSLTCLVKGFYPSDIAVEWESNGQPENNYKTTPPVLDSDGSFFLYSKLTVDKSRWQQGNVFSCSVMHEALHNHYTQKSLSLSPGK
light: DIQMTQSPSSLSASVGDRVTITCRASKSVSTSAYSYMHWYQQKPGKAPKLLIYLASNLESGVPSRFSGSGSGTDFTLTISSLQPEDFATYYCQHSRELPYTFGQGTKLEIKRTVAAPSVFIFPPSDEQLKSGTASVVCLLNNFYPREAKVQWKVDNALQSGNSQESVTEQDSKDSTYSLSSTLTLSKADYEKHKVYACEVTHQGLSSPVTKSFNRGEC
chain: MIDYPSVSFNLDGAKSATYRDFLSNLRKTVATGTYEVNGLPVLRRESEVQVKSRFVLVPLTNYNGNTVTLAVDVTNLYVVAFSGNANSYFFKDATEVQKSNLFVGTKQNTLSFTGNYDNLETAANTRRESIELGPSPLDGAITSLYHGDSVARSLLVVIQMVSEAARFRYIEQEVRRSLQQATSFTPNALMLSMENNWSSMSLEIQQAGNNVSPFFGTVQLLNYDHTHRLVDNFEELYKITGIAILLFRCSSPSND
modifications: single cysteine in a hindered disulphide bond to the SMPT-derivatised antibody; derivatised with SMPT on amino groups; disulphide link to recNgA
cytotoxicity on HT1080-FAP cells (cell viability), IC50 [2]: 5000 nM
